Changes are numbered by the printed parent chain.
Legend:
[1] = biological target: T1, RhpR (Pseudomonas syringae, UniProt A0ABY1U8E6); experiment: […] phosphorylation, autoradiography; type: biochemical; conditions: phosphodonor; covalent phosphorylation (putative site Asp70); labelled compound; 37 °C, 30 min
T1 construct: gene virG; full-length, N-terminal His6 tag (pMCSG19, MBP cut off in vivo), E. coli BL21 star (DE3)

[2] = tested on: T2, RhpRpsph (Pseudomonas syringae pv. phaseolicola), ORF:976030cf; experiment: EMSA; conditions: 10 mM Tris-HCl pH 7.4, 50 mM KCl, 5 mM MgCl2, 10% glycerol, 3 ug/ml sheared salmon sperm DNA, room temperature
T2 sequence: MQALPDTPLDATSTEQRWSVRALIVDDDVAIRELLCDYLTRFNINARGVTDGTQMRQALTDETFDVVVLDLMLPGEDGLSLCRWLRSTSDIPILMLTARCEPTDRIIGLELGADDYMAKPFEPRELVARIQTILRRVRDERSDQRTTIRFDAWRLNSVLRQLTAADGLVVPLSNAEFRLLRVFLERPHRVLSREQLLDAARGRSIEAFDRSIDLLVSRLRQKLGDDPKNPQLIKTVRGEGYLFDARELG

[3] = tested on: T3, RhpR (Pseudomonas syringae pv. tomato DC3000?), ORF:d96f1ca2; experiment: EMSA; conditions: 10 mM Tris-HCl pH 7.4, 50 mM KCl, 5 mM MgCl2, 10% glycerol, 3 ug/ml sheared salmon sperm DNA, room temperature
T3 sequence: T2 sequence with D6E, T7N, P8T, E15D, T53S

[4] = tested on: RhpR (Pseudomonas syringae pv. tomato DC3000?); experiment: EMSA; conditions: 10 mM Tris-HCl pH 7.4, 50 mM KCl, 5 mM MgCl2, 10% glycerol, 3 ug/ml sheared salmon sperm DNA, room temperature

Compound	binding [2]	also measured
CC(=O)OP(=O)(O)O [acetyl phosphate]		32P phosphorylation, autoradiography [1]: The phosphorylated RhpR was readily detected
ATATTACCGCGCAAACCATCGACCAGGATTTTGCCCGCAACGGCAAGATTCACCGCGCCTGGAAAATCATGGCGCGTGCCTGATACGGTGTGTGATGAGCTTGCCTGTAACAGTTTTGTACAGGTTTGCTCATCGCTCCCTATGAAAATTACTGGCGAATAGCTATAACAGAAGTCATAGCCAGCTTGACGCTTCAGCATGTTGGCGTCATGAGTTTCTG (double strand) [rlmL]	binds	
CGCCTGGCGAATGTCTTATGGCAGCTTATTCGCAGCAGCAACTCATAGGCATCGGGGGGCTATCGGTCGATCCGTATATCAAAACTGATACCGCAAGGCTAAGGCGTGTGTACGTAACACCTACTGTAAGGAGGCAACATGTAGGTCAGGCGCTGGTAAAAGCATTGATTGCGCAGGCCGCGCTTCGTTTTCAGTGCGTGCGTCTTTCCACTGACACCTCTGAAGGCGATGCGTTTTACCTGCGTTGCGG (double strand) [PSPPH4977]	binds	
GCAGGAACCCCTCTCGTTATCGGGTTGTCGACAACAGACTGGCTGTTAAAACCTGTTCAGAGTGTGAACAGAGCCTGGACACCTGAATTTTCATTACGAGAGGTTGCC (double strand) [PSPTO_1489 promoter]		binding [3]: no binding
GGGAACAGTTTGCGTTTTTCAGCCAGCCTCACTCATTAGCTGGATAAGCAGACAGGCGTTCTTTCACTTGATTCCGGTACAAGTTCTCATAACGATTGAAAGCCTGCTGCATCGATTCATCTATCCATGTATAAATGCTGTTACACATTGGCCCATCTCTGGAGACTCAGCGCATGCGTTACGCGCTCGATCATAAGGCCCAAACCCATCAACGTATCGTCAAGGAAGCGTCCATGCGCTTTCGTCGCGATGGCATTGGTGCTACGGGCTTACAACCTT (double strand) [PSPPH3654]	binds	
TACAAGGGGTAGGGCTGTGACTGTCAGAAAGGTCCTATGCCCCGACACCTGCACGGTATAGAACACGCCAAACATCACGGCCATACGCCACCATCCGCTCTCCCGAATGTTCAGCAAAAGTACAGATACATCCTGCTACAACAATCCTTGCGCAGAAACATTTGAGCGACTGGGCACTGCGTTCAGCGCCACTGCACCTGCGGATGATTCCGAGGAGGCAACATGTTCTTAAGGTATGGGGTATTGATCGCATCACTTGCGATAGCGTCA (double strand) [PSPPH1086]	binds	
TTCGATACTTAGCGGATCAGGCATTATCGCATCGCCGCAAAAAATAATCCTGCCGCCGGGAGGAGAGCACACGGTTAGATTGCGCTCGTTGTCGAGTCCAAATAAAGAGTTGTTATATCGTGTATATGTCGAGACTGTAGCTGCGAATACGGATGAAGATCATGTGGTTACAGAGGGGGGTGGCAGCGTTGGTATTAGTCTAACATGGGGG (double strand) [PSPPH0775]	no binding	
rhpR promoter EMSA probe		binding signal (fold affinity vs unphosphorylated RhpR) [4]: 8; binding signal ([4]; scale: fold affinity vs unphosphorylated RhpR): 8

From article PMC4191427, “Molecular mechanisms of two-component system RhpRS regulating type III secretion system in Pseudomonas syringae” (Nucleic Acids Research, 2014)
